Results on six molecules are retold here after publication PMC4575208, “Characterization of Flavin-Containing Opine Dehydrogenase from Bacteria” (PLoS ONE, 2015).

The target of data set [1] is T1, PpOdhB (beta-subunit of PpOpnDH, PpOdhABC) (Pseudomonas putida, UniProt Q88EK5+Q88EK6).
T1 construct: gene ooxB; N-terminal (His)6-tagged PpOdhB in the PpOdhABC complex (α4β4γ4); with PpOdhA (PP_4456) and PpOdhC
T1 sequence (Q88EK5 1-375): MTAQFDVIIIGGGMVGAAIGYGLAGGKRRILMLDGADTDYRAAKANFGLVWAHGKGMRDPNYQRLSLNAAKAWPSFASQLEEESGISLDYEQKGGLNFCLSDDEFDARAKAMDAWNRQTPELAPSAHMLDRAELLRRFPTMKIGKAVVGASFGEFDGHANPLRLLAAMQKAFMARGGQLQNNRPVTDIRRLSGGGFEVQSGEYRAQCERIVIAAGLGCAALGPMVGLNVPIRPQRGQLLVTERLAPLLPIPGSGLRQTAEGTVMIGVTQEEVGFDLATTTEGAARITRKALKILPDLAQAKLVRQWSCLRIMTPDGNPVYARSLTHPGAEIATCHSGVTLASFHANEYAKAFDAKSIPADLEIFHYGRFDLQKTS
T1 sequence (Q88EK6 2-464): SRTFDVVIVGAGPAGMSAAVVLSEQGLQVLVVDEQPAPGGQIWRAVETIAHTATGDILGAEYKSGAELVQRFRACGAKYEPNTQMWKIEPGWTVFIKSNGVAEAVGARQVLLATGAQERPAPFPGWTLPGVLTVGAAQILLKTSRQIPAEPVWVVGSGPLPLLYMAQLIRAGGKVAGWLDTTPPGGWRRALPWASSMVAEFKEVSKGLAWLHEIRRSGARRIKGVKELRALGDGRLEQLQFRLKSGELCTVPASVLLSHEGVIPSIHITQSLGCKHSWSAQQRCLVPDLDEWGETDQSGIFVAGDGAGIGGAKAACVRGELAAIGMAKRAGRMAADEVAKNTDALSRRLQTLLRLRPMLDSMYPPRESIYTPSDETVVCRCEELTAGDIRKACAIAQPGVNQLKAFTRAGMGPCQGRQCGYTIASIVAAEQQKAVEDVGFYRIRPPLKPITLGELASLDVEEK
Nature of the data set: inhibition of nopaline ([…]) dehydrogenase activity of the purified enzyme. It counts as biochemical.

The target of data set [2] is (His)6-tagged PpOdhB, β-subunit of opine dehydrogenase from Pseudomonas putida KT2440 (Pseudomonas putida KT2440) (UniProt Q88EK5). The data set is described as follows: pull-down; PpOdhB-C-A operon with N-terminal (His)6-tag on OdhB expressed in P. putida cells; Ni-NTA chromatography in buffer with Tween-20, 300 mM NaCl, pH 8.0; bands on SDS-PAGE identified by N-terminal sequencing; molar ratio by image scanning of SDS-PAGE peak areas (ImageJ).

Substrate in data set [3]: C[C@@H](N[C@@H](CCCNC(=N)N)C(=O)O)C(=O)O
Nature of the data set: purified protein. The conditions noted are these: FAD, FMN.

Data set [4] deals with T2, (His)6-tagged PpOdhB, β-subunit of opine dehydrogenase from Pseudomonas putida KT2440 (Pseudomonas putida KT2440, UniProt Q88EK5 1-375).
T2 construct: PpOdhB, product of gene PP_4457 of Pseudomonas putida KT2440; first gene of the operon PpOdhB-C-A; band of 42 kDa; Carries FAD; also called PP_4457; source: P. putida KT2442-oxyR1 harboring pUCP/PpOdhABC, co-expressed from the PpOdhB-C-A operon, purified (Ni-NTA); not shown: His6, N-terminal, kept
T2 sequence (looked up): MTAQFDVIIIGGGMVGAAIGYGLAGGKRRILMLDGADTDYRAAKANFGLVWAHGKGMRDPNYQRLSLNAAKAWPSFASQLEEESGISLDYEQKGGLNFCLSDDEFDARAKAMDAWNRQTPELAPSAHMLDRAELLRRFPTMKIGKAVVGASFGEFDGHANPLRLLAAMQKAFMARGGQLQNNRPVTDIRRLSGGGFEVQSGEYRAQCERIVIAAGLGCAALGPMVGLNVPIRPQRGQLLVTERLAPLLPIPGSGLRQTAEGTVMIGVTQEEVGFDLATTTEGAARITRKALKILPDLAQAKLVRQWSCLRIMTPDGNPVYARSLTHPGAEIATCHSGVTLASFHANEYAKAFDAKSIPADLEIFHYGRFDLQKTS
The data set is described as follows: pull-down; PpOdhB-C-A operon with N-terminal (His)6-tag on OdhB expressed in P. putida cells; Ni-NTA chromatography in buffer with Tween-20, 300 mM NaCl, pH 8.0; bands on SDS-PAGE identified by N-terminal sequencing; molar ratio by image scanning of SDS-PAGE peak areas (ImageJ). The conditions noted are these: partners not purified.

Substrate in data set [5]: N=C(N)NCCC[C@H](N[C@H](CCC(=O)O)C(=O)O)C(=O)O
Nature of the data set: purified protein. The conditions noted are these: FAD, FMN, [2Fe-2S] the β- and α-subunit were both necessary for substrate binding.

As a reminder, the IC50 is the concentration at which inhibition is half-maximal. As a reminder, the stoichiometry N is the number of molecules, sites or subunits per partner or assembly. Broadly, the Km is the substrate concentration at which the rate is half of its maximum. As a reminder, the kcat is the maximal rate divided by the concentration of active sites. As usually defined, the kcat/Km is the second-order rate constant that governs catalysis at low substrate concentration.

Turning to `O=C(O)CCC(=O)C(=O)O` [α-ketoglutarate], in data set [1], the IC50 was 589 µM.
As to “PpOdhC, γ-subunit of opine dehydrogenase from Pseudomonas putida KT2440 (enzyme)”, the stoichiometry N in data set [2] came to 1.

B1: BjOdhB2 (beta-subunit of BjOpnDH2, BjOdhAB2C) (Bradyrhizobium diazoefficiens USDA 110) (protein)
chain 1: MTGNVDAIVIGGGIHGCSTTLHLCLAGLKPVLIEKDYAGRHASGVNAGGVRQLARHVPEIPLSIRSMGIWERITDLLDDDCSFESHGQVLVAENEDELAVCRARVAELNALGFTHEELIDATELRRLVPAVAETCPGGVVSRRDGAANPAQTTTAFRRKAEQLGATVREGVAASNIRYSDGLWYVDVGSDTYAAPVLVNAAGAWAGKIAAALGEPVPVETVAPMLMITSRVPHFIDPVVILRGRKLSFKQFSNGTVLIGGGHLATPYQDRNETVLDWKSLAISARTVFELFPVMRSATIVRAWAGIEAKMKDDIPVFGPSSRHKGLYHQFGFSLHGFQLGPGAGAVMAELIVNGGTQTRIGDLGIDRFHPSTL
chain 2: MTVAPKREDYDVVVIGAGPAGLAAAATSAEAGLSTLLLDENIGPGGQVFRAISSTPVTDRNQLGADYWVGADLVQSLRASNAEVIQRAMVWSLDRNLDIAVSVGGASAFVKAKRVILATGALERPFPIPGWTLPGVMTAGAAQTMLKSSALVPDGRTVIAGQGPLLWLLAAQILRLGGRIDRILDTTERGNYFAALPHAFAFLTSPYFAKGLSMMREVKAKVQVVTGVTELTASGDGQLANVSYVAGGKRETLPVDLLLLHQGVVPNVNLAMAAGVEHRWDELQLCWSPVLDANGSSSVAGIAIAGDGAGIGGANAAVVRGRIAARAAVEALAPAAAAKLASMATLRADLAKAERGRAFLDTLFRPAPQFRIPSGDTIVCRCEEVTAKDVLDSVAIGATGPNQLKAYRRTGMGPCQGRLCGLTVTELMAQARGKSPQEIGYYRLRAPVKPITLAELAAVPKTEDDVKAVVRG
With B1, in data set [3], the Km is reported as 19.5 mM, the kcat was found to be 72.8 s⁻¹ and the kcat/Km was determined as 3730 M⁻¹ s⁻¹.

B2: BjOdhB1 (beta-subunit of BjOpnDH1, BjOdhAB1C) (Bradyrhizobium diazoefficiens USDA 110) (protein)
chain 1: MSGEYDVAVVGGGLLGSAIAWGLGRLGKKVAVLDEGDITKRASRANFALVWVQSKGLGMPAYTVWTVQASQAWGRLAFELKQQTGLDVSLQQNGGFHLTLGEDEFGQRTELVKRMHNQVGAADYKMEMLPASEVKKALPLIGPEVSGGSYCPLDGHVNSLRTFRAFHTGFMAFGIDYLPERPVSAISKSGGEFRLTTPKGELRAAKVVLAAGNANQTLAPMVGLHAPMGPTRGQIVVTERTMPFLPHPLTTIRQTDEGTVMIGDSKEDELDDRTLKHSISAVMTDRAQRMFPHLSRLNVIRSWAGIRVMPQDGFPIYDQSETHPGAFVACCHSGVTLASNHAFEIARMVAQGALEPELVGAFSASRFGGAGAANNSGY
chain 2: MTVAPKREDYDVVVIGAGPAGLAAAATSAEAGLSTLLLDENIGPGGQVFRAISSTPVTDRNQLGADYWVGADLVQSLRASNAEVIQRAMVWSLDRNLDIAVSVGGASAFVKAKRVILATGALERPFPIPGWTLPGVMTAGAAQTMLKSSALVPDGRTVIAGQGPLLWLLAAQILRLGGRIDRILDTTERGNYFAALPHAFAFLTSPYFAKGLSMMREVKAKVQVVTGVTELTASGDGQLANVSYVAGGKRETLPVDLLLLHQGVVPNVNLAMAAGVEHRWDELQLCWSPVLDANGSSSVAGIAIAGDGAGIGGANAAVVRGRIAARAAVEALAPAAAAKLASMATLRADLAKAERGRAFLDTLFRPAPQFRIPSGDTIVCRCEEVTAKDVLDSVAIGATGPNQLKAYRRTGMGPCQGRLCGLTVTELMAQARGKSPQEIGYYRLRAPVKPITLAELAAVPKTEDDVKAVVRG
Turning to B2, in data set [3], the Km is 4.81 mM, the kcat is 0.0982 s⁻¹ and the kcat/Km is 20.3 M⁻¹ s⁻¹.

B3: PpOdhA, α-subunit of opine dehydrogenase from Pseudomonas putida KT2440 (enzyme, UniProt Q88EK6 1-464, looked up)
chain: MSRTFDVVIVGAGPAGMSAAVVLSEQGLQVLVVDEQPAPGGQIWRAVETIAHTATGDILGAEYKSGAELVQRFRACGAKYEPNTQMWKIEPGWTVFIKSNGVAEAVGARQVLLATGAQERPAPFPGWTLPGVLTVGAAQILLKTSRQIPAEPVWVVGSGPLPLLYMAQLIRAGGKVAGWLDTTPPGGWRRALPWASSMVAEFKEVSKGLAWLHEIRRSGARRIKGVKELRALGDGRLEQLQFRLKSGELCTVPASVLLSHEGVIPSIHITQSLGCKHSWSAQQRCLVPDLDEWGETDQSGIFVAGDGAGIGGAKAACVRGELAAIGMAKRAGRMAADEVAKNTDALSRRLQTLLRLRPMLDSMYPPRESIYTPSDETVVCRCEELTAGDIRKACAIAQPGVNQLKAFTRAGMGPCQGRQCGYTIASIVAAEQQKAVEDVGFYRIRPPLKPITLGELASLDVEEK
notes: PpOdhA, product of gene PP_4456 of Pseudomonas putida KT2440; GTG used as start codon; band of 46 kDa (45 kDa in the methods); The start (GTG codon) may differ from the annotated entry; also called PP_4456
B3: in data set [4], the “stoichiometry N” value was ~1.

B4: PpOdhB (beta-subunit of PpOpnDH, PpOdhABC) (Pseudomonas putida KT2440) (protein)
chain 1: MTAQFDVIIIGGGMVGAAIGYGLAGGKRRILMLDGADTDYRAAKANFGLVWAHGKGMRDPNYQRLSLNAAKAWPSFASQLEEESGISLDYEQKGGLNFCLSDDEFDARAKAMDAWNRQTPELAPSAHMLDRAELLRRFPTMKIGKAVVGASFGEFDGHANPLRLLAAMQKAFMARGGQLQNNRPVTDIRRLSGGGFEVQSGEYRAQCERIVIAAGLGCAALGPMVGLNVPIRPQRGQLLVTERLAPLLPIPGSGLRQTAEGTVMIGVTQEEVGFDLATTTEGAARITRKALKILPDLAQAKLVRQWSCLRIMTPDGNPVYARSLTHPGAEIATCHSGVTLASFHANEYAKAFDAKSIPADLEIFHYGRFDLQKTS
chain 2: SRTFDVVIVGAGPAGMSAAVVLSEQGLQVLVVDEQPAPGGQIWRAVETIAHTATGDILGAEYKSGAELVQRFRACGAKYEPNTQMWKIEPGWTVFIKSNGVAEAVGARQVLLATGAQERPAPFPGWTLPGVLTVGAAQILLKTSRQIPAEPVWVVGSGPLPLLYMAQLIRAGGKVAGWLDTTPPGGWRRALPWASSMVAEFKEVSKGLAWLHEIRRSGARRIKGVKELRALGDGRLEQLQFRLKSGELCTVPASVLLSHEGVIPSIHITQSLGCKHSWSAQQRCLVPDLDEWGETDQSGIFVAGDGAGIGGAKAACVRGELAAIGMAKRAGRMAADEVAKNTDALSRRLQTLLRLRPMLDSMYPPRESIYTPSDETVVCRCEELTAGDIRKACAIAQPGVNQLKAFTRAGMGPCQGRQCGYTIASIVAAEQQKAVEDVGFYRIRPPLKPITLGELASLDVEEK
Regarding B4, in data set [5], the Km is on record as 0.476 mM, the kcat stood at 315 s⁻¹ and the catalytic efficiency (kcat/Km) came out at 663000 M⁻¹ s⁻¹.
